Paper PMC9122904, “Insights into the client protein release mechanism of the ATP-independent chaperone Spy” (Nature Communications, 2022)

How the values were obtained:
Test in all cases: BLI; Octet RED96; client biotinylated and loaded on streptavidin sensors; Spy or Spy variant in solution at 0.25, 0.5, 1, 1.5 and 2 μM; 40 mM HEPES, 150 mM NaCl, pH 7.5; Kd calculated as koff/kon
Conditions in all cases: both partners purified
Spy_(29-138) = target: T1, Spy_(29-138) (UniProt P77754 52-161)
T1 construct: source: E. coli BL21 (DE3), purified (Ni-NTA, cation exchange, SEC); not shown: His6, N-terminal, cleaved; SUMO, N-terminal, cleaved
T1 sequence (looked up): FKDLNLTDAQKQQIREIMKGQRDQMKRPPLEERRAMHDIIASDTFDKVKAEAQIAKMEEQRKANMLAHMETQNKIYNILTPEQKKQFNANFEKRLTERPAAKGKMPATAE
Procedure, shortened: (§1)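 Biolayer interferometry used an Octet RED96: client proteins biotinylated with EZ-link NHS-biotin (1:1 molar ratio) were loaded on streptavidin sensors, dipped into 40 mM HEPES, 150 mM NaCl, pH 7.5 containing Spy protein at 0.25, 0.5, 1, 1.5 and 2 μM, then moved to Spy-free buffer. Wavelength-shift association and dissociation curves were fitted in SigmaPlot 12.0, giving observed association rate and koff. kon came from observed rate versus Spy concentration; Kd was koff/kon.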

Spy_(29-130) = target: T2, Spy_(29-130) (UniProt P77754 52-153)
T2 construct: Spy chaperone, residues 29-130; source: E. coli BL21 (DE3), purified (Ni-NTA, cation exchange, SEC); not shown: His6, N-terminal, cleaved; SUMO, N-terminal, cleaved
T2 sequence (looked up): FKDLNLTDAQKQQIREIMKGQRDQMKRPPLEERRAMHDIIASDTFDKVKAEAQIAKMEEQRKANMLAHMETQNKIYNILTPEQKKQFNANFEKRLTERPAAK
Procedure, shortened: as §1

Spy_(29-127) = target: T3, Spy_(29-127) (UniProt P77754 52-150)
T3 construct: Spy chaperone, residues 29-127; source: E. coli BL21 (DE3), purified (Ni-NTA, cation exchange, SEC); not shown: His6, N-terminal, cleaved; SUMO, N-terminal, cleaved
T3 sequence (looked up): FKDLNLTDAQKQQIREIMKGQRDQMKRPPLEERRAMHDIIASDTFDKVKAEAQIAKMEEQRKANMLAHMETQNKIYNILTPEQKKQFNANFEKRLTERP
Procedure, shortened: as §1

Spy_(29-124) = target: T4, Spy_(29-124) (UniProt P77754 52-147)
T4 construct: also called termini-free Spy; source: E. coli BL21 (DE3), purified (Ni-NTA, cation exchange, SEC); not shown: His6, N-terminal, cleaved; SUMO, N-terminal, cleaved
T4 sequence (looked up): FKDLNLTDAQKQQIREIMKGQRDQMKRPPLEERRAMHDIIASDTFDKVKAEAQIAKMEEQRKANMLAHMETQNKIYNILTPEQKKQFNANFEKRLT
Procedure, shortened: as §1

Spy_(21-130) = target: T5, Spy_(21-130) (UniProt P77754 44-153)
T5 construct: Spy chaperone, residues 21-130; source: E. coli BL21 (DE3), purified (Ni-NTA, cation exchange, SEC); not shown: His6, N-terminal, cleaved; SUMO, N-terminal, cleaved
T5 sequence (looked up): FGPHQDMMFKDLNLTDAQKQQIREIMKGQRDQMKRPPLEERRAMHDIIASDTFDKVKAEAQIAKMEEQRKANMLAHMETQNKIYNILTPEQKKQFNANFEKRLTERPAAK
Procedure, shortened: as §1

Spy_(21-124) = target: T6, Spy_(21-124) (UniProt P77754 44-147)
T6 construct: source: E. coli BL21 (DE3), purified (Ni-NTA, cation exchange, SEC); not shown: His6, N-terminal, cleaved; SUMO, N-terminal, cleaved
T6 sequence (looked up): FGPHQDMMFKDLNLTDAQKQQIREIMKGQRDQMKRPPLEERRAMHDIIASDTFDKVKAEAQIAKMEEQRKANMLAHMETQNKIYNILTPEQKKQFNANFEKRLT
Procedure, shortened: as §1

Spy_(24-124) = target: T7, Spy_(24-124) (UniProt P77754 47-147)
T7 construct: source: E. coli BL21 (DE3), purified (Ni-NTA, cation exchange, SEC); not shown: His6, N-terminal, cleaved; SUMO, N-terminal, cleaved
T7 sequence (looked up): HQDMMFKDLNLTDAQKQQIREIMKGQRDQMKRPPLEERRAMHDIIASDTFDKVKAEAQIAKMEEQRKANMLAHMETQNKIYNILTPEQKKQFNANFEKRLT
Procedure, shortened: as §1

Spy_(27-130) = target: T8, Spy_(27-130) (UniProt P77754 50-153)
T8 construct: Spy chaperone, residues 27-130; source: E. coli BL21 (DE3), purified (Ni-NTA, cation exchange, SEC); not shown: His6, N-terminal, cleaved; SUMO, N-terminal, cleaved
T8 sequence (looked up): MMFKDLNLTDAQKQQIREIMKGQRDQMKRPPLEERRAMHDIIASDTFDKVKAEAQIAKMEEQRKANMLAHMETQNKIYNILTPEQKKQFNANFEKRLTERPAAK
Procedure, shortened: as §1

Kd (Spy_(29-138)): 313 nM
Kd (Spy_(29-130)): 333 nM
Kd (Spy_(29-127)): 310 nM
Kd (Spy_(29-124)): 323 nM
Kd (Spy_(21-130)): 2490 nM
Kd (Spy_(21-124)): 1820 nM
Kd (Spy_(24-124)): 1640 nM
Kd (Spy_(27-130)): 297 nM
B1: Im7 H40W L53A I54A (natural protein)
chain: MELKNSISDYTEAEFVQLLKEIEKENVAATDDVLDVLLEWFVKITEHPDGTDAAYYPSDNRDDSPEGIVKEIKEWRAANGKPGFKQG
modifications: biotin (EZ-link NHS-biotin, 1:1 molar ratio of biotin to protein)
notes: Im7 (colicin E7 immunity protein) with H40W L53A I54A; Spy was made with an N-terminal His6-SUMO tag that was cleaved; also called Im7AAW; partially folded client; source: purified by a similar procedure to Spy
